Measurements as given in FireProtDB (doi:10.1021/bi9928694).

B1: Lysozyme C, P61626 (parent)
chain: MKALIVLGLVLLSVTVQGKVFERCELARTLKRLGMDGYRGISLANWMCLAKWESGYNTRATNYNAGDRSTDYGIFQINSRYWCNDGKTPGAVNACHLSCSALLQDNIADAVACAKRVVRDPQGIRAWVAWRNRCQNRDVRQYVQGCGV

Variants of: B1
Conditions: Homo sapiens, reversible: yes, structure 1LZ1, whole UniProt chain shown
[1] = pH 2.7, 64.9 °C, Thermal, DSC, glycine-HCl 0.05 M
[2] = pH 2.7, Thermal, DSC, glycine-HCl 0.05 M
[3] = pH 4, 10 °C, GdnHCl, CD, glycine-HCl 40 mM

Row | Variant | ddG of mutation (higher = less stable) [1] [kcal/mol] | heat capacity change of unfolding [1] [kcal/mol/K] | unfolding enthalpy (calorimetric) [1] [kcal/mol] | Tm [2] [°C] | change of melting temperature, mutant - wild type (higher = more stable) [2] [°C] | heat capacity change of unfolding [2] [kcal/mol/K] | unfolding enthalpy (calorimetric) [2] [kcal/mol] | ddG of mutation (higher = less stable) [3] [kcal/mol] | denaturant midpoint (higher = more stable) [3] [M] | unfolding free energy [3] [kcal/mol]
1 | MKALIVLGLVLLSVTVQGKVFERCELARTLKRLGMDGYRGISLANWMCLAKWESGYNTRATNYNAGDGSTDYGIFQINSRYWCNDGKTPGAVNACHLSCSALLQDNIADAVACAKRVVRDPQGIRAWVAWRNRCQNRDVRQYVQGCGV | -0.26 | 1.46 | 100 | 65.8 | 0.9 | – | – | – | – | –
2 | MKALIVLGLVLLSVTVQGKVFERCELARTLKRLGMDGYRGISLANWMCLAKWESQYNTRATNYNAGDRSTDYGIFQINSRYWCNDGKTPGAVNACHLSCSALLQDNIADAVACAKRVVRDPQGIRAWVAWRNRCQNRDVRQYVQGCGV | 0.26 | 1.15 | 108 | 64.9 | – | 1.15 | 108 | 0.86 | 3.79 | 13.5
3 | MKALIVLGLVLLSVTVQGKVFERCELARTLKRLGMDGYRGISLANWMCLAKWESGYNTRATNYNAGDRSTDYGIFGINSRYWCNDGKTPGAVNACHLSCSALLQDNIADAVACAKRVVRDPQGIRAWVAWRNRCQNRDVRQYVQGCGV | – | – | – | – | 5.7 | 1.34 | 109 | -2.06 | 4.26 | 16.4
4 | MKALIVLGLVLLSVTVQGKVFERCELARTLKRLGMDGYRGISLANWMCLAKWESGYNTRATNYNAGDRSTDYGIFQINSRYWCNDGKTPGAVNACGLSCSALLQDNIADAVACAKRVVRDPQGIRAWVAWRNRCQNRDVRQYVQGCGV | 0.12 | 1.58 | 109 | 64.9 | – | 1.58 | 109 | 0.53 | 3.81 | 13.8
